{"source": "patent JP2008136455A", "about": "(dated 2008)", "binders": {"B1": {"name": "VHH-Sfi-SBT (VHH, not shown: large carriers)", "VHH": "DVQLQASGGGSVQAGGSLRLSCAASGYTIGPYCMGWFRQAPGKEREGVAAINMGGGITYYADSVKGRFTISQDNAKNTVYLLMNSLEPEDTAIYYCAADSAIYASYYECGHGLSTGGYGYGPWGQGTQVTVSS"}}, "key": {"[1]": {"molecular_target": "T1, ビメンチン(vimentin) (human (endogenous protein of the human …, UniProt P08670 2-466))", "T1 construct": "Endogenous intracellular protein", "T1 sequence (P08670 2-466 limits assumed)": "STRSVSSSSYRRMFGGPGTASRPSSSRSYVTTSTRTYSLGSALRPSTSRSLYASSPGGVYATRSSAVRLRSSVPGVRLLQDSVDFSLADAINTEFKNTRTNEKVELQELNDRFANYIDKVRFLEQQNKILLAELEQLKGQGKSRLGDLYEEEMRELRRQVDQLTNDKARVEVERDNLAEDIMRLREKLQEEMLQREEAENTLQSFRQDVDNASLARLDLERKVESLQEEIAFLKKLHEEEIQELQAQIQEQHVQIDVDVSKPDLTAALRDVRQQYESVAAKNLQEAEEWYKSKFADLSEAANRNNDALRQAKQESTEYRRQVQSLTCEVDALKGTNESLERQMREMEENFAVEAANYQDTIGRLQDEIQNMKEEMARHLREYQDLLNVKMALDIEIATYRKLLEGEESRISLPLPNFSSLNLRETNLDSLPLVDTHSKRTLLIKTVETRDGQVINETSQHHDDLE", "assay": "streptavidin affinity precipitation from HT1080 lysate, stringent wash, western blot with anti-vimentin antibody"}, "[2]": {"molecular_target": "T2, hnRNP-K (heterogeneous nuclear ribonucleoprotein K) (human (endogenous protein of the human …, UniProt P61978 1-463, limits assumed))", "T2 construct": "Endogenous intracellular protein", "assay": "streptavidin affinity precipitation from HT1080 lysate, stringent wash, western blot with anti-hnRNP-K antibody"}}, "data": [{"binder": "B1", "values": [{"measurement": "binding result", "setting": "[1]", "value": "no binding"}, {"measurement": "binding result", "setting": "[2]", "value": "no binding"}]}]}
